Data taken from publication PMC4894940, “The function of the two-pore channel TPC1 depends on dimerization of its carboxy-terminal helix” (Cellular and Molecular Life Sciences: CMLS, 2016).
Substitutions are numbered along the chain they refer to. Names may count otherwise.

Experiments:
[1] = system: slow vacuolar (SV) currents in tpc1-2 vacuoles; assay: Whole-vacuolar patch-clamp of TPC1 variants (SV currents); type: cell-based, Arabidopsis thaliana; conditions: for whole-vacuolar SV currents: GFP-fusion in tpc1-2 vacuoles, 1 mM CaCl2 bath, pH 7.5; for reduction of whole-vacuolar current amplitude: relative to TPC1 wild type
Experimental: (§1) Expression of GFP-fusion proteins for electrophysiological measurements or confocal microscopy was performed in A. thaliana tpc1-2 mesophyll protoplasts as described. Briefly, leaves were enzymatically digested to release mesophyll protoplasts, which were then transformed by the polyethylene glycol method. Protoplasts were used for electrophysiological measurements and subcellular localization of GFP fluorescence 2–4 days after transformation.
(§2) Patch-clamp experiments were performed on transformed vacuoles harboring two-pore channels as identified by GFP fluorescence. The pipette (luminal) solution consisted of 100 mM K-gluconate, 2 mM MgCl2, 10 mM EGTA, 10 mM MES, pH 5.5/Tris. The bath (cytosolic) solution contained 50 mM K-gluconate, 1 mM CaCl2, 1 mM MgCl2, 2 mM DTT, 10 mM HEPES, pH 7.5/Tris. Solutions were adjusted to 430 mosmol/kg by adding D-sorbitol. For analysis of the TPC1-S706 mutants two further calcium concentrations of the bath solution were used in which 1 mM CaCl2 was substituted by 0.2 mM or 0.05 mM CaCl2, respectively. Competition assays using the CTH peptide were performed on endogenous TPC1 channels in vacuoles isolated from Col-0 plants. Peptides were dissolved at 10 mM in bath solution supplemented with 1 % DMSO and 0.1 % pluronic, and diluted >600-fold for application in patch-clamp recordings. Currents were recorded either in the whole-vacuolar or cytosolic side-out configuration of the patch-clamp technique, using an EPC10 amplifier and the program PULSE (HEKA electronics, Lambrecht, Germany). Recordings and data analysis were performed as described earlier. Relative open probabilities (P o) were determined from tail currents at −53 mV, following pulses to the different test voltages. Tail currents were normalized to the maximum values at 1 mM Ca^2+, plotted as a function of the applied test voltage, and fitted according to the Boltzmann equation: PO=A/1+exp^zF/RT·(Vo-V) where V o and z are parameters for the voltage at half-maximum open probability and the apparent number of gating charges, respectively, and A describes the maximum conductance that is reached under the experimental conditions.

tonoplast = assay: Confocal localization of GFP-fusions in tpc1-2 mesophyll protoplasts; type: cell-based, Arabidopsis thaliana; conditions: GFP-fusion in tpc1-2 mesophyll protoplasts
Experimental: as §1
Fluorescence signals were detected and documented with a TCS SP2 confocal laser scanning microscope and the Leica Confocal Software (Leica Microsystems). A 488 nm Argon laser was used for excitation of GFP and of the auto-fluorescence of chlorophyll. GFP-signals were detected from 500 to 556 nm and chlorophyll signals from 675 to 767 nm. Venus was excited with a […] and detected in the range from 520 to 556 nm, the corresponding chlorophyll signals were detected from 637 to 736 nm. Images were processed with Photoshop (Adobe Systems).

[2] = system: excised cytosolic side-out vacuolar membrane patches of tpc1-2 cells; assay: Excised cytosolic side-out patch recordings of TPC1 variants; type: cell-based, Arabidopsis thaliana; conditions: for macroscopic currents in excised patches: tpc1-2 cells; for current remaining following reduction of Ca2+ from 1 mM to 200 µM: at 107 mV, Ca2+ reduced from 1 mM to 200 µM (n = 3–7)
Experimental: as §1, §2

[3] = system: TPC1 subunits co-expressed in Nicotiana benthamiana leaves; assay: Bimolecular fluorescence complementation (Split Venus BiFC); type: cell-based; conditions: N. benthamiana leaves, plate reader and confocal
Experimental: For BiFC analyses the gateway entry vector pENTR-D-TOPO and the destination vectors pDEST–^GWVYCE and pDEST–^GWVYNE were used for C-terminal fusion of the Venus C- and N-terminus, respectively, and pDEST–VYCE(R)^GW and pDEST–VYNE(R)^GW for N-terminal tagging.
BiFC studies were performed as described using a Split Venus system. The Agrobacterium strain C58C1 [42] harboring the plasmid of interest and the helper strain p19 [43] were grown in LB medium supplemented with 100 µg/ml Kanamycin at 29 °C overnight. The cultures were brought to an optical density (OD600) of 1.0 in infiltration buffer (10 mM MES, 10 mM MgCl2, 100 µM acetosyringone, pH 5.7/KOH) and the combinations to test for co-expression mixed at equal amounts. The p19 helper strain (OD600 = 1.0) was added to these mixtures in a 1:1 ratio. Suspensions were incubated for 2 h before infiltration into the abaxial side of 6-week-old N. benthamiana leaves. Each leaf was infiltrated with several plasmid combinations and a positive control (TPC1/pDEST-^GWVYCE and TPC1/pDEST-^GWVYNE) as well as a negative control (p19 alone) at separated areas to monitor comparability of the transient expression and to define background fluorescence.
For fluorescence quantification leaf disks (Ø 6 mm) were cut out of the infiltrated areas with a cork borer 2.5 day after infiltration. Leaf disks were placed upside-down in a black 96-well plate prefilled with 70 µl H2O per well to minimize dehydration effects. Fluorescence was measured with a plate-reader (Infinite F200, Tecan) with an excitation wavelength of 485 ± 20 nm and an emission wavelength of 525 ± 25 nm.

B1: TPC1ΔC8: truncated TPC1 containing residues 1–725 (protein, UniProt Q94KI8 1-725, looked up, fragment)
chain: MEDPLIGRDSLGGGGTDRVRRSEAITHGTPFQKAAALVDLAEDGIGLPVEILDQSSFGESARYYFIFTRLDLIWSLNYFALLFLNFFEQPLWCEKNPKPSCKDRDYYYLGELPYLTNAESIIYEVITLAILLVHTFFPISYEGSRIFWTSRLNLVKVACVVILFVDVLVDFLYLSPLAFDFLPFRIAPYVRVIIFILSIRELRDTLVLLSGMLGTYLNILALWMLFLLFASWIAFVMFEDTQQGLTVFTSYGATLYQMFILFTTSNNPDVWIPAYKSSRWSSVFFVLYVLIGVYFVTNLILAVVYDSFKEQLAKQVSGMDQMKRRMLEKAFGLIDSDKNGEIDKNQCIKLFEQLTNYRTLPKISKEEFGLIFDELDDTRDFKINKDEFADLCQAIALRFQKEEVPSLFEHFPQIYHSALSQQLRAFVRSPNFGYAISFILIINFIAVVVETTLDIEESSAQKPWQVAEFVFGWIYVLEMALKIYTYGFENYWREGANRFDFLVTWVIVIGETATFITPDENTFFSNGEWIRYLLLARMLRLIRLLMNVQRYRAFIATFITLIPSLMPYLGTIFCVLCIYCSIGVQVFGGLVNAGNKKLFETELAEDDYLLFNFNDYPNGMVTLFNLLVMGNWQVWMESYKDLTGTWWSITYFVSFYVITILLLLNLVVAFVLEAFFTELDLEEEEKCQGQDSQEKRNRRRSAGSKSRSQRVDTLLHHMLGDELSK
modifications: GFP fusion
With B1 the “whole-vacuolar SV currents” value ([1]; whole-vacuolar) was “wild type like” and the “subcellular localization of GFP-fusion” value (tonoplast) was “localized in the tonoplast”.

B2: TPC1ΔC29: truncated TPC1 containing residues 1–704 (protein, UniProt Q94KI8 1-704, looked up, fragment)
chain: MEDPLIGRDSLGGGGTDRVRRSEAITHGTPFQKAAALVDLAEDGIGLPVEILDQSSFGESARYYFIFTRLDLIWSLNYFALLFLNFFEQPLWCEKNPKPSCKDRDYYYLGELPYLTNAESIIYEVITLAILLVHTFFPISYEGSRIFWTSRLNLVKVACVVILFVDVLVDFLYLSPLAFDFLPFRIAPYVRVIIFILSIRELRDTLVLLSGMLGTYLNILALWMLFLLFASWIAFVMFEDTQQGLTVFTSYGATLYQMFILFTTSNNPDVWIPAYKSSRWSSVFFVLYVLIGVYFVTNLILAVVYDSFKEQLAKQVSGMDQMKRRMLEKAFGLIDSDKNGEIDKNQCIKLFEQLTNYRTLPKISKEEFGLIFDELDDTRDFKINKDEFADLCQAIALRFQKEEVPSLFEHFPQIYHSALSQQLRAFVRSPNFGYAISFILIINFIAVVVETTLDIEESSAQKPWQVAEFVFGWIYVLEMALKIYTYGFENYWREGANRFDFLVTWVIVIGETATFITPDENTFFSNGEWIRYLLLARMLRLIRLLMNVQRYRAFIATFITLIPSLMPYLGTIFCVLCIYCSIGVQVFGGLVNAGNKKLFETELAEDDYLLFNFNDYPNGMVTLFNLLVMGNWQVWMESYKDLTGTWWSITYFVSFYVITILLLLNLVVAFVLEAFFTELDLEEEEKCQGQDSQEKRNRRRSAGS
modifications: C-terminal GFP
In the case of B2, the “whole-vacuolar SV currents” value ([1]; whole-vacuolar) is reported as “stayed silent” and the “subcellular localization of GFP-fusion” value (tonoplast) is reported as “localized in the tonoplast”.

B3: TPC1-3LA: leucines L714, 715, 719 of TPC1 replaced by alanine (protein, UniProt Q94KI8 1-733, looked up, variant L714A L715A L719A)
Two pore calcium channel …: MEDPLIGRDSLGGGGTDRVRRSEAITHGTPFQKAAALVDLAEDGIGLPVEILDQSSFGESARYYFIFTRLDLIWSLNYFALLFLNFFEQPLWCEKNPKPSCKDRDYYYLGELPYLTNAESIIYEVITLAILLVHTFFPISYEGSRIFWTSRLNLVKVACVVILFVDVLVDFLYLSPLAFDFLPFRIAPYVRVIIFILSIRELRDTLVLLSGMLGTYLNILALWMLFLLFASWIAFVMFEDTQQGLTVFTSYGATLYQMFILFTTSNNPDVWIPAYKSSRWSSVFFVLYVLIGVYFVTNLILAVVYDSFKEQLAKQVSGMDQMKRRMLEKAFGLIDSDKNGEIDKNQCIKLFEQLTNYRTLPKISKEEFGLIFDELDDTRDFKINKDEFADLCQAIALRFQKEEVPSLFEHFPQIYHSALSQQLRAFVRSPNFGYAISFILIINFIAVVVETTLDIEESSAQKPWQVAEFVFGWIYVLEMALKIYTYGFENYWREGANRFDFLVTWVIVIGETATFITPDENTFFSNGEWIRYLLLARMLRLIRLLMNVQRYRAFIATFITLIPSLMPYLGTIFCVLCIYCSIGVQVFGGLVNAGNKKLFETELAEDDYLLFNFNDYPNGMVTLFNLLVMGNWQVWMESYKDLTGTWWSITYFVSFYVITILLLLNLVVAFVLEAFFTELDLEEEEKCQGQDSQEKRNRRRSAGSKSRSQRVDTAAHHMAGDELSKPECSTSDT
modifications: C-terminal GFP
notes: leucines L714, 715, 719 of TPC1 replaced by alanine
B3 was tested, and the “whole-vacuolar SV currents” value ([1]; whole-vacuolar) was “loss of SV currents to a similar extent as TPC1-3LP”, the single-channel conductance ([2]; excised cytosolic side-out patch, tpc1-2 cell, linear fit) was 58 pS and the “macroscopic currents in excised patches” value [2] was “no macroscopic currents were resolved”.

B4: TPC1-S706A (protein, UniProt Q94KI8 1-733, looked up, variant S706A)
Two pore calcium channel …: B3 Two pore calcium channel … with S706A, A714L, A715L, A719L
B4 was tested, and the “reduction of whole-vacuolar current amplitude” value [1] was 53% and the “current remaining following reduction of Ca2+ from 1 mM to 200 µM” value (“current remaining following reduction” for short) [2] was 28 ± 3%.

B5: TPC1: wild type Arabidopsis two-pore channel TPC1 expressed as GFP-fusion in tpc1-2 background (protein)
chain: B3 Two pore calcium channel … with A714L, A715L, A719L
modifications: left off: Venus C-terminal half (VC, one copy) or Venus N-terminal half (VN, the other copy), C-terminal, kept
notes: wild type Arabidopsis two-pore channel TPC1 expressed as GFP-fusion in tpc1-2 background
B5 was tested, and the “current remaining following reduction” value [2] was 53 ± 10% and the “BiFC signal” value [3] was “BiFC signals from wild type channels could be observed”.

B6: TPC1-3LP: substitution of three leucines (L714, 715, and 719) by prolines (protein, UniProt Q94KI8 1-733, looked up, variant L714P L715P L719P)
Two pore calcium channel …: B3 Two pore calcium channel … with A714P, A715P, A719P
modifications: C-terminal GFP
notes: substitution of three leucines (L714, 715, and 719) by prolines
For B6, the “residual whole-vacuolar current amplitude (% of wild type amplitude)” value ([1]; whole-vacuolar, 1 mM CaCl2, relative to wild type, results section) was “about 7%”, the “macroscopic currents in excised patches” value [2] was “no macroscopic currents were resolved” and the “BiFC signal” value [3] was “reduced compared to the wild type”.

B7: TPC1-S706D (protein, UniProt Q94KI8 1-733, looked up, variant S706D)
Two pore calcium channel …: B3 Two pore calcium channel … with S706D, A714L, A715L, A719L
In the case of B7, the “reduction of whole-vacuolar current amplitude” value [1] is reported as 58% and the “current remaining following reduction” value [2] is reported as 24 ± 4%.
